From article PMC10394066, “Polymorphic amyloid nanostructures of hormone peptides involved in glucose homeostasis display reversible amyloid formation” (Nature Communications, 2023)
Non-standard residues stand in square brackets, D forms with d. No end group written: not given here. pGlu = O=C1CC[C@@H](C(=O)O)N1

Experiments:
[1] = molecular target: the molecule itself; test: far-UV CD; 0.15–0.20 mM peptide in distilled water, physiological pH and above (above pH 5), stirred 500–600 rpm at 37 °C, measured at 25 °C for up to weeks
[2] = molecular target: the molecule itself; test: crystal structure; amyloid-like single crystals grown from peptide solutions (water, water/ACN/TFA, water/EtOH or 0.1 M citrate pH 4.0; pH 2-7; 4-37 °C; conditions of each polymorph in Table 1); data at 100 K, Cu Kα
[3] = molecular target: the molecule itself; test: FTIR; 6 mM peptide in water, pH adjusted from 7.2 to 4.2; amide I band 1625–1630 cm^−1; bio-ATR cell
[4] = molecular target: the molecule itself; test: far-UV CD; 0.15–0.20 mM peptide in distilled water, acidic pH set with HCl/NaOH, stirred 500–600 rpm at 37 °C, measured at 0–168 h at 25 °C; U to β/β’-type spectral shift

B1: APR^Tc5b hexapeptide LYIQWL (synthetic exendin-like APR of the de novo designed Tc5b and E19) (peptide)
peptide: LYIQWL
notes: hexapeptide segment of the de novo designed Trp-cage exendin derivatives Tc5b and E19; non-natural, no acidic side chain; also called LYIQWL (Tc5b, E19); source: synthetic peptide (flow solid-phase synthesis, Fmoc/tBu; RP-HPLC purified)
binding result [1]: binds

B2: pEFIAWL (APR^GLP1 with N-terminal pyroglutamic acid) (peptide)
peptide: [pGlu]FIAWL
notes: aggregation-prone hexapeptide segment of human GLP-1; residue 1 is pyroglutamic acid; Both EFIAWL and pEFIAWL were present in the crystallization samples; the crystal holds pEFIAWL; also called pEFIAWL (GLP-1); APR^GLP1 (in the crystal); source: formed from synthetic EFIAWL by spontaneous ring closure in the crystallization sample (pH ≈ 2, 37 °C)
binding result [2]: binds

B3: APR^GLP1 hexapeptide EFIAWL (aggregation-prone region of glucagon-like peptide 1) (peptide)
peptide: EFIAWL
notes: aggregation-prone hexapeptide segment of human glucagon-like peptide 1 (GLP-1); source: synthetic peptide (flow solid-phase synthesis, Fmoc/tBu; RP-HPLC purified)
binding result [3]: binds

B4: Ac-EFIAWL (N-terminally acetylated APR^GLP1) (peptide)
peptide: Ac-EFIAWL
notes: aggregation-prone hexapeptide segment of human GLP-1, N-terminally acetylated; also called Ac-EFIAWL (GLP-1); source: synthetic peptide
binding result [4]: binds

B5: APR^GLP2 hexapeptide DFINWL (aggregation-prone region of glucagon-like peptide 2) (peptide)
peptide: DFINWL
notes: aggregation-prone hexapeptide segment of human glucagon-like peptide 2 (GLP-2); free termini (no terminal protection); also called DFINWL (GLP-2); source: synthetic peptide (flow solid-phase synthesis, Fmoc/tBu; RP-HPLC purified)
binding result [2]: binds
